{
  "source": "patent US20210340238A1",
  "about": "“TGFß1 INHIBITORS AND USE THEREOF” (Scholar Rock, Inc., priority 2018, published 2021)",
  "molecules": {"B1": {"name": "Ab2: isoform-selective inhibitor of TGFβ1 activation; VH SEQ ID NO: 13, VL SEQ ID NO: 15; human IgG4 (antibody, V domains shown)", "VH": "EVQLLESGGGLVQPGGSLRLSCAASGFTFADYAMTWVRQAPGKGLEWVSAISGSGAATYFADSVKGRFTISRDNSKNTLYLQMNSLRAEDTAVYYCARVSSGHWDFDYWGQGTLVTVSS", "VL": "DIQLTQSPSSLSASVGDRVTITCRASQSISSYLNWYQQKPGKAPKLLIYAASNLQSGVPSRFSGSGSGTDFTLTISSLQPEDFATYYCQQTYTVPLTFGGGTKVEIK", "modifications": "human IgG4 constant regions"}},
  "key": {"[1]": {"system": "TGFβ signaling (Smad2/3 phosphorylation; Col1a1, Col3a1, Fn1)", "assay": "Col4a3−/− genetic model of Alport syndrome (kidney pSmad2/3 ELISA, qPCR)", "assay_type": "in vivo, mouse", "text": "The murine Col4a3−/− model is an established genetic model of autosomal recessive Alport syndrome. Alport mice lack a functional collagen 4A3 gene (Col4A3−/−) and therefore cannot form normal type IV collagen trimers, which require α3, α4, and α5 chains. Col4a3−/− mice develop fibrosis in the kidney consistent with renal fibrosis in human patients, including interstitial fibrosis and tubular atrophy, and Col4a3−/− mice develop end-stage renal disease (ESRD) between 10 and 30 week of age, depending on the genetic background of the mouse. The structural and functional manifestation of renal pathology in Col4a3−/− mice, combined with the progression to ESRD make Col4a3−/− mice an ideal model to understand kidney fibrosis. Previous reports point to the importance of the TGFβ signaling pathway in this process, and treatment with either […], a known activator of TGFβ, or with a TGFβ ligand trap has been reported to prevent renal fibrosis and inflammation in Alport mice (Hahm et al. (2007) The American Journal of Pathology, 170(1): 110-125).\nF1 offspring from Col4a3+/− males on a 129/Sv genetic background crossed to Col4a3+/− females on a C57/Bl6 genetic were employed for the study.\nIt is well documented that TGFβ receptor activation leads to a downstream signaling cascade of intra cellular events, including phosphorylation of Smad2/3. […] FIG. 7A provides a graph showing relative ratios of phosphorylated vs. total (phosphorylated and unphospohrylated) Smad2/3.\nAn IgG was used as negative control in both heterozygous (Col4a3+/−; Het) and knock out (Col4a3−/−; KO) mice. Following six weeks of antibody treatment (12 weeks after birth), animals were sacrificed, and the kidneys were collected for analyses.\nTo assess the functional effect of TGFβ inhibition, a third study was carried out in the Col4a3−/− model of kidney fibrosis. […] Treatment effect was assessed by gene expression, which was evaluated by quantitative polymerase chain reaction (qPCR) using cDNA generated from the kidneys of mice in this study."}, "CloudmanS91 tumors": {"system": "CloudmanS91 tumors", "assay": "CloudmanS91 melanoma mouse model, combination with anti-PD-1", "assay_type": "in vivo", "conditions": "10 mg/kg and 30 mg/kg i.p. weekly, in combination with anti-PD1", "protocol": "Clone M3 [Cloudman S91 melanoma] (ATCC® CCL-53.1™) cells were obtained from the American Type Culture Collection (ATCC), and were maintained at CR Discovery Services as exponentially growing suspension cultures in Kaighn's modified Ham's F12 Medium supplemented with 2.5% fetal bovine serum, 15% horse serum, 2 mM glutamine, 100 units/mL penicillin G sodium, 100 μg/mL streptomycin sulfate and 25 μg/mL gentamicin. The tumor cells were grown in tissue culture flasks in a humidified incubator at 37° C., in an atmosphere of 5% CO2 and 95% air.\nAn untreated control was used, data not shown."}, "[2]": {"biological_target": "Matrix-associated proTGFβ1", "assay": "Octet binding, ECM average of hLTBP1 and hLTBP3 complexes", "set-up": "species or system human", "conditions": "average KD of (B) and (C), read-out: (D) ECM AVRG", "text": "Column (A) of the table provides monoclonal antibodies with discrete amino acid sequences. […] Columns (B), (C), (E) and (F) provide affinities of each of the listed antibodies, measured in KD, towards the antigen complex as indicated, respectively. […] Average KD values calculated from (B) and (C) are shown in the corresponding column (D), which collectively represents affinities of the antibodies to ECM- or matrix-associated proTGFβ1 complexes. Similarly, Average KD values calculated from (E) and (F) are shown in the corresponding column (G), which collectively represents affinities of the antibodies to cell-surface or cell-associated proTGF complexes. Finally, relative ratios between the average KD values from columns (D) and (G) are expressed as fold bias” in column (H). Thus, the greater the numerical of column (H) is, the greater bias exists for the particular antibody, when comparing binding preferences of the antibody for matrix-associated complexes to cell-surface complexes. This is one way of quantitatively representing and comparing inherent bias of antibodies to their target complexes. Such analyses may be useful in guiding the selection process for a candidate antibody for particular therapeutic use."}, "proTGFβ1 C4S": {"biological_target": "proTGFβ1 C4S (Homo sapiens, UniProt P01137, C33S)", "sequence (P01137 30-390 C33S)": "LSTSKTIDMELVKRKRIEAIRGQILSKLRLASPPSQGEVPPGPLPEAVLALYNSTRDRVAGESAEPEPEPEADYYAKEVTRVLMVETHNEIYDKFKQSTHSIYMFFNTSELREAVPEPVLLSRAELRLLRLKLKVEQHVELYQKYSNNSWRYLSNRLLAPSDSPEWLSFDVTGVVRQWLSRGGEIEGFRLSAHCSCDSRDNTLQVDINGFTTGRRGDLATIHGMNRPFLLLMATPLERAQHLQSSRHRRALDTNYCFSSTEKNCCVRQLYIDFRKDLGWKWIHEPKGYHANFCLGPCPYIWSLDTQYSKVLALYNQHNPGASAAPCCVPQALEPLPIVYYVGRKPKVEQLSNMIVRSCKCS", "assay": "Octet Red384 pH-sensitivity of binding (dissociation at pH 7 and pH 5)", "conditions": "dissociation at pH 7 vs pH 5", "protocol": "The antibodies were tested against sensor-immobilized human proTGFβ1 C4S, which contains a mutation in the prodomain to facilitate proTGFβ1 expression without disulfide linkage to a presentation molecule.\nThen, the tips were moved into an activation solution for 5 minutes. […] The activation solution is prepared immediately before use in the experiment. After tip activation, the tips were loaded for 3 minutes with a 10 ug/mL solution of human proTGFβ1 C4S in 10 mM sodium acetate buffer pH 5. After loading, the tips were quenched in ethanolamine pH 8.5 for 15 minutes. The tips were then baseline/blocked with a 20 minute incubation in 1× enhanced kinetics buffer. 1× enhanced kinetics buffer (1×EKB) is 1× kinetics buffer (ForteBio part no 18-1105 diluted from 10× with PBS) with the addition of 2% BSA (Sigma A3059-100G), 0.5 M NaCl (FisherS671-10), and 0.09% tween-20 (P7949-500M). […] The dissociation was performed in 1×KB at pH 7 and pH 5."}},
  "note": "Entries after “also recorded” stand apart in the source; their conditions may differ.",
  "data": [
    {"molecule": "B1", "values": [
      {"measurement": "Expression of Col1a1, Col3a1 and Fn1 in kidney (qPCR)", "setting": "[1]; 5 mg/kg i.p. twice a week from week 6 to week 14, Col4a3−/− mice", "result": "significantly reduced the expression of Col1a1 and Col3a1; also recorded: Expression of Fn1 showed a similar trend in Ab2-treated Col4a3−/− mice, though this effect was not statistically significant"},
      {"measurement": "Relative ratio of phosphorylated vs. total Smad2/3 in whole kidney lysates", "setting": "[1]; i.p. twice weekly for six weeks from week 6, Ab3 5 or 1.5 mg/kg, Ab2 1.5 mg/kg, vs IgG treated Col4a3−/− mice", "result": "significant reduction in relative phosphorylation of Smad2/3"},
      {"measurement": "Relative ratio of phosphorylated vs. total Smad2/3 in whole kidney lysates", "setting": "[1]; single 10 mg/kg i.p. dose 48 hours before sacrifice, 9 week old Col4a3−/− mice", "result": "sufficient to significantly inhibit pSmad2/3 signaling"},
      {"measurement": "Tumor growth (median tumor progression)", "setting": "CloudmanS91 tumors", "result": "delayed tumor growth"},
      {"measurement": "Kd", "setting": "[2]", "result": 0.157, "unit": "nM"},
      {"measurement": "pH sensitivity of binding", "setting": "proTGFβ1 C4S", "result": "Ab2 is pH-sensitive"}
    ]}
  ]
}
